Assay results reported in patent US20210347899A1 (BRIGHAM AND WOMEN S HOSPITAL, published 2021).
Positions count from the first letter of the chain named.

T1: full length human KLRG1 (human, UniProt Q96E93 1-195)
T1 sequence (looked up): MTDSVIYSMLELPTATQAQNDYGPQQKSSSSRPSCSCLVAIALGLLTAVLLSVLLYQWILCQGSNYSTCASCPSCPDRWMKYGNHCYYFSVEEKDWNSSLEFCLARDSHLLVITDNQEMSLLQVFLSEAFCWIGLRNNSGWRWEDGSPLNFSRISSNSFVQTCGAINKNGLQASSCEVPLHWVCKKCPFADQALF

T2: full length cynomolgus KLRG1 (cynomolgus, UniProt A0A2K5WAP9 1-186)
T2 construct: whole, on cells; also called Cyno KLRG1; CHO-cynomolgus-KLRG1
T2 sequence: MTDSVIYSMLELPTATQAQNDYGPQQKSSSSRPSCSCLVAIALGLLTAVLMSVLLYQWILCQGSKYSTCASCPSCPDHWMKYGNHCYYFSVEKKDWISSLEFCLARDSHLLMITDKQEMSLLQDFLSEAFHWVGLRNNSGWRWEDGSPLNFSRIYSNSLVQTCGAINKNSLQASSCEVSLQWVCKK

T3: cynomolgus KLRG1 ECD (cynomolgus, biotinylated in the OCTET assay, site not stated)
T3 construct: Recombinant proteins were made as FC fusion or as HIS tagged versions; also called cynonolgus KLRG1 ECD
T3 chain: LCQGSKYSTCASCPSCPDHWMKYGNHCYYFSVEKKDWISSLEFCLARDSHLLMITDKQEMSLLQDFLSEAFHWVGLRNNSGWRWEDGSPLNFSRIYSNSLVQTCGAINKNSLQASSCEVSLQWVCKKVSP

T4: human KLRG1 ECD (human, UniProt Q96E93 60-186, biotinylated in the OCTET assay, site not stated)
T4 construct: Recombinant proteins were made as FC fusion or as HIS tagged versions; also called Human-KLRG-ECD
T4 sequence: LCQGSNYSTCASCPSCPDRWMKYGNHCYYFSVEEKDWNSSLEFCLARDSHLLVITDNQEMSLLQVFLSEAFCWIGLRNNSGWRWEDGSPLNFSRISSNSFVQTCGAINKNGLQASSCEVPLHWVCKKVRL

B1: ABC_G1N06 (antibody, V domains shown)
VH: QVQLKQSGPGLVQPSQSLSITCTVSGFSLTTHAVHWVRQSPGKGLDWLGVIWSGGNTDYNAAFISRLTISKDNSKSQVFFKMNSLQADDTAIYYCVRLLLPAMDYWGQGTSVTVSS
VL: QIVLTQSPAIMSASLGERVTMTCTATSSVSSTYLHWYRQKPGSSPKLWIYSTSTLASGVPVRFRGSGSGTSYSLTISSMEAEDAATYYCHQYRRSPYTFGGGTKLEIK
notes: Mouse hybridoma monoclonal antibody
B2: ABC_G1N03 (antibody, V domains shown)
VH: QVHLQQSGPELVKPGASVKLSCKASGDTFTTYDITWVKQRPGQGLEWIGWIYPKDGRTQNSEKFKDKATLTVDTSSTTAYMELHSLTSEDSAVYFCARRGQFGPYFDHWGQGSTLTVSS
VL: VIQMTQSSSFLSASLGGRVSITCRASDHIYNWLAWYQQKPGNAPRLLISGATSLETGIPSRFSGGGSGKDYTLTIISLQTEDIASYYCQQYWNTPPTFGGGTKVEIK
notes: as for B1
B3: ABC_G1N04 (antibody, V domains shown)
VH: DVQLVESGGGLVQPGGSRKLSCAASGFSFSTFGMHWVRQVPEKGLEWVAYISSGSYSIFYADSVKGRFTISRDNPKNTLFLQMTSLRSEDTAIYYCTRTRDSGSSPHYFDYWGQGTTVTVSS
VL: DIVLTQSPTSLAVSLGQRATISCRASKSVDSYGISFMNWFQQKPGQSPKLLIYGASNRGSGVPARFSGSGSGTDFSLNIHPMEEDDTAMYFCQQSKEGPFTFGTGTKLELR
notes: as for B1
B4: ABC_G1N01 (antibody, V domains shown)
VH: QVILKESGPGILQPSQTLSLTCSFSGFSLTTFGMGIGWIRHPSGKALEWLAHIWWNDDKSYNSALKSRLTISKDTSKNQVFLRLANVATADTATYYCARTIYYGNYLTFYAMEHWGQGTSVTVSS
VL: DVLLTQTPLSLPVSLGDQASISCRSSQNIVHSNGNTYLEWYLLKPGQSPKLLIFKVSNRFSGVPDKFSGSGSGTDFTLKIRRVEAEDLGIYYCFQGSHVPPTFGAGTKLELK
notes: as for B1
B5: ABC_HG1N07 (antibody, IgG1, V domains shown)
VH: QVQLVESGGGLVKPGGSLRLSCAASGFTFRNYAMSWIRQTPGKGLEWVATISESGNYNNYPDNVKGRLTISRDNAKNSLYLQMNSLKAEDTAVYYCVRDDWEGRAMDYWGQGTTVTVSS
VL: DIQMTQSPSSLSASVGDRVTITCRASRDIGSSLNWYQQKPGGAPKRLIYATSSLDSGVPKRFSGSGSGTDFTLTISSLQSEDFATYYCLQYASSPWTFGQGTKVEIKR
B6: ABC_HG1N01 (antibody, IgG1, V domains shown)
VH: QVILKESGPGLVKPTQTLTLTCTFSGFSLTTFGMGIGWIRQPPGKALEWLAHIWWNDDKSYNSALKSRLTISKDTSKNQVVLTMTNMDPVDTATYYCARTIYYGNYLTFYAMEHWGQGTTVTVSS
VL: DILMTQSPLSLPVTPGEPASISCRSSQNIVHSNGNTYLEWYLQKPGQSPRLLIYKVSNRFSGVPDRFSGSGSGTDFTLKISRVEAEDVGVYYCFQGSHVPPTFGAGTKLELKR
B7: ABC_HG1N02 (antibody, IgG1, V domains shown)
VH: QVTLKESGPGLVKPTQTLTLTCTFSGFSLSTFGMGVGWIRQPPGKALEWLAHIWWDDDKWYELALKSRLTISKDSSKNQVVLTMTNMDPVDTATYYCARVIYYGSRSAYYSMDYWGPGTTVTVSS
VL: B6 VL with R24K, N28S, N35H, P101V

biological target: T1, full length human KLRG1; assay: cell-based or functional assay

IFNγ released (pg/ml), Sample 1 | IFNγ released (pg/ml), Sample 2 | Binder
1020 pg/mL | 1140 pg/mL | B1
934 pg/mL | 869 pg/mL | B2
987 pg/mL | 1000 pg/mL | B3
1190 pg/mL | 1220 pg/mL | B4

biological target: T1, full length human KLRG1; assay: cell-based or functional assay; remark: another data set of the same source

IFNγ | Binder
1200 pg/mL | B4

biological target: T1, full length human KLRG1; assay: FACS on CHO-human-KLRG1 cells
Protocol: (§1) Binding of anti-KLRG1 monoclonal antibodies to cell expressed human and cynomolgus-KLRG1 was carried out by FACS. Chinese hamster ovary (CHO) cells were stably transfected to express full length human KLRG1 (CHO-human-KLRG1) and cynomolgus KLRG1 (CHO-cynomolgus-KLRG1).

EC50 | Binder
1.43 nM | B1
1.3 nM | B2
29 nM | B3
1.21 nM | B4

biological target: T2, full length cynomolgus KLRG1; assay: FACS on CHO-cynomolgus-KLRG1 cells
Protocol: as §1

EC50 | Binder
1.5 nM | B1
1.06 nM | B2
0.47 nM | B3
1.45 nM | B4

Biological target: T3, cynomolgus KLRG1 ECD
Assay: hybridoma screen for binding to KLRG1 ECD

binding result | Binder
binds | B1
binds | B2
binds | B3
binds | B4

biological target: T4, human KLRG1 ECD; assay: BLI (OCTET), biotinylated antigen on streptavidin sensor, 1:1 fit
Protocol: (§2) Binding kinetics of humanized antibodies for human and cynomolgus KLRG1 were determined by OCTET® measurement. OCTET® Systems use Bio-Layer Interferometry (BLI) technology to monitor the binding of proteins and other biomolecules to their partners directly in real time, providing analysis of kinetic binding constants. See https.//www.fortebio.com/bli-technology.html, the contents of which, including all links and sublinks associated therewith, is incorporated by reference herein in its entirety. The experimental set-up consists of immobilizing biotinylated recombinant antigen (Human-KLRG-ECD or cynomolgus-KLRG1-ECD) on streptavidin OCTET® sensor to produce antigen loaded sensors. The loaded sensors are the exposed to varying concentrations of each humanized antibody from 100 to 0.1 nM in the OCTET® instruments and data collected for 600 seconds to measure association kinetic (Kₒₙ) of the antibody/antigen complex. […] Kinetic binding parameters derived by this method are summarized in Table 9 for the three humanized antibodies.

Kd | koff | kon | Binder
< 0.0051 nM | < 1e-05 s⁻¹ | 1.97e+06 M⁻¹ s⁻¹ | B5
0.125 nM | 0.000287 s⁻¹ | 2.29e+06 M⁻¹ s⁻¹ | B6
0.243 nM | 0.000681 s⁻¹ | 2.8e+06 M⁻¹ s⁻¹ | B7

Biological target: T3, cynomolgus KLRG1 ECD
Assay: as above
Protocol: as §2

Kd | koff | kon | Binder
1.42 nM | 0.00125 s⁻¹ | 880000 M⁻¹ s⁻¹ | B5
0.0617 nM | 4.1e-05 s⁻¹ | 664000 M⁻¹ s⁻¹ | B6
0.0647 nM | 4.07e-05 s⁻¹ | 630000 M⁻¹ s⁻¹ | B7

biological target: T1, full length human KLRG1; assay: FACS competition, loss of HIS tagged E-cadherin binding to CHO-hKLRG1 cells
Protocol: The ability of monoclonal antibodies to inhibit E-cadherin/KLRG1 binding was measured by FACS. Binding of E-cadherin to CHO-hKLRG1 cells was first determined by incubating the KLRG1 expressing cells with varying concentration of HIS tagged recombinant E-cadherin and detected by FACS with anti-HIS detection antibody.

IC50 | Binder
41 nM | B1
12.2 nM | B4
